The target of the experiment is T1, Gβγ on affinity beads (Gβ with 3xHA-tagged Gγ) (S. cerevisiae, UniProt P18851 1-423; P18852 1-110).
T1 sequence (looked up) 1: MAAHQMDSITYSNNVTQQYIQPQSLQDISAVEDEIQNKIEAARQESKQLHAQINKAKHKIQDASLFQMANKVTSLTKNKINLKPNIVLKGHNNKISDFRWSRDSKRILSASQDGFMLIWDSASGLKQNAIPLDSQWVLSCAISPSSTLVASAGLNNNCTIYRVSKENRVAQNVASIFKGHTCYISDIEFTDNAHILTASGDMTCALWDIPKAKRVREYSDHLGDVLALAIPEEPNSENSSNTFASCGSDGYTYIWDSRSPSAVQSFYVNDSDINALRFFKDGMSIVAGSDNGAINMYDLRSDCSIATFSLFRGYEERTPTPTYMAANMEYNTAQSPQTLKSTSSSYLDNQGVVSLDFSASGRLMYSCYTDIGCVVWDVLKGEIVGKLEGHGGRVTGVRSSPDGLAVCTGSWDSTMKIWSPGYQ
T1 sequence (looked up) 2: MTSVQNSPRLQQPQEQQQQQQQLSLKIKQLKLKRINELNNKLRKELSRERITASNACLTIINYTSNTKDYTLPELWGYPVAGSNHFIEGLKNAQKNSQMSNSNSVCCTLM
Put plainly: affinity purification with mass spectrometry.

B1: myc-tagged Yck1 (yeast casein kinase 1) (enzyme, S. cerevisiae, UniProt P23291 1-538, looked up)
chain: MSMPIASTTLAVNNLTNINGNANFNVQANKQLHHQAVDSPARSSMTATTAANSNSNSSRDDSTIVGLHYKIGKKIGEGSFGVLFEGTNMINGVPVAIKFEPRKTEAPQLRDEYKTYKILNGTPNIPYAYYFGQEGLHNILVIDLLGPSLEDLFDWCGRKFSVKTVVQVAVQMITLIEDLHAHDLIYRDIKPDNFLIGRPGQPDANNIHLIDFGMAKQYRDPKTKQHIPYREKKSLSGTARYMSINTHLGREQSRRDDMEALGHVFFYFLRGHLPWQGLKAPNNKQKYEKIGEKKRSTNVYDLAQGLPVQFGRYLEIVRSLSFEECPDYEGYRKLLLSVLDDLGETADGQYDWMKLNDGRGWDLNINKKPNLHGYGHPNPPNEKSRKHRNKQLQMQQLQMQQLQQQQQQQQYAQKTEADMRNSQYKPKLDPTSYEAYQHQTQQKYLQEQQKRQQQQKLQEQQLQEQQLQQQQQQQQQLRATGQPPSQPQAQTQSQQFGARYQPQQQPSAALRTPEQHPNDDNSSLAASHKGFFQKLGCC
Consider B1, for which the “Gβ/Gβ^P− ratio (total MS intensity on Gβγ beads over that on Gβ^P−γ beads)” value is 2.25.

B2: endogenous Yck2 (untagged native protein) (enzyme, UniProt P23292 1-546, looked up)
chain: MSQVQSPLTATNSGLAVNNNTMNSQMPNRSNVRLVNGTLPPSLHVSSNLNHNTGNSSASYSGSQSRDDSTIVGLHYKIGKKIGEGSFGVLFEGTNMINGLPVAIKFEPRKTEAPQLKDEYRTYKILAGTPGIPQEYYFGQEGLHNILVIDLLGPSLEDLFDWCGRRFSVKTVVQVAVQMITLIEDLHAHDLIYRDIKPDNFLIGRPGQPDANKVHLIDFGMAKQYRDPKTKQHIPYREKKSLSGTARYMSINTHLGREQSRRDDMEAMGHVFFYFLRGQLPWQGLKAPNNKQKYEKIGEKKRLTNVYDLAQGLPIQFGRYLEIVRNLSFEETPDYEGYRMLLLSVLDDLGETADGQYDWMKLNGGRGWDLSINKKPNLHGYGHPNPPNEKSKRHRSKNHQYSSPDHHHHYNQQQQQQQAQAQAQAQAQAKVQQQQLQQAQAQQQANRYQLQPDDSHYDEEREASKLDPTSYEAYQQQTQQKYAQQQQKQMQQKSKQFANTGANGQTNKYPYNAQPTANDEQNAKNAAQDRNSNKSSKGFFSKLGCC
Turning to B2, the “Gβ/Gβ^P− ratio (total MS intensity on Gβγ beads over that on Gβ^P−γ beads)” value turned out to be 2.09.

Values taken from article PMC4908976 (Science signaling, 2016).
